Measured values as given in patent US20130225488A1 (CADILA HEALTHCARE, published 2013).
Where no end group is shown, it is not given here. [ ]: non-standard residue; d: D form. Ac3c = NC1(C(=O)O)CC1; Aib = CC(C)(N)C(=O)O

Experiments:
Human GLP-1 receptor = Human GLP-1 receptor (human, UniProt P43220 24-463); experiment: cell-based or functional assay
Human glucagon receptor = Human glucagon receptor (human, UniProt P47871 26-477); experiment: cell-based or functional assay

Sequence of Human GLP-1 receptor (P43220 24-463): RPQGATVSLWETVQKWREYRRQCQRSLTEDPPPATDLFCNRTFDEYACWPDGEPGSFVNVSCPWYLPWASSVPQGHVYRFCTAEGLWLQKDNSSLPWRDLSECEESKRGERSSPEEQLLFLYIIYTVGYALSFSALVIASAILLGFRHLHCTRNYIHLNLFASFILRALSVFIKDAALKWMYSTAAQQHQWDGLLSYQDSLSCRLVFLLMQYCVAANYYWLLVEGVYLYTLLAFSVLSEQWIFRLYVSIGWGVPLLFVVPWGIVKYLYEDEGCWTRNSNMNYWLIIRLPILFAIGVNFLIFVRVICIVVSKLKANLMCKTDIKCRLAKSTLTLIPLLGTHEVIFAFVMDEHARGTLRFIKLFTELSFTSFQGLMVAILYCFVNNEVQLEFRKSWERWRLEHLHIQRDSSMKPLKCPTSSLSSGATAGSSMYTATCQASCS

Row | Binder | cAMP release, % activity with respect to control; test compound 1 nM (Human GLP-1 receptor) [%] | cAMP release, % activity with respect to control; test compound 10 nM (Human GLP-1 receptor) [%] | cAMP release, % activity with respect to control; test compound 100 nM (Human GLP-1 receptor) [%] | cAMP release, % activity with respect to control; test compound 1 µM (Human GLP-1 receptor) [%] | cAMP release, % activity with respect to control; test compound 10 µM (Human GLP-1 receptor) [%] | cAMP production with saturated glucagon peptide; test compound 1 nM (Human glucagon receptor) [pmol/ml/µg prt] | cAMP production with saturated glucagon peptide; test compound 10 nM (Human glucagon receptor) [pmol/ml/µg prt] | cAMP production with saturated glucagon peptide; test compound 100 nM (Human glucagon receptor) [pmol/ml/µg prt] | cAMP production with saturated glucagon peptide; test compound 10 µM (Human glucagon receptor) [pmol/ml/µg prt] | cAMP production with saturated glucagon peptide; test compound '1 nM' (Human glucagon receptor) [pmol/ml/µg prt]
1 | HAQGTFTSD[Bip(OMe)][Bip(2F)] [Seq. ID. No. 11: HAQGTFTSD-Bip(OMe)-Bip(2F)] | 51 | 86 | 91 | 99 | 99 | 10 | 8 | 6 | 0 | 2
2 | H[Aib]QGTFTSD[Bip(OMe)][Bip(2Me)] [Seq. ID. No. 13: H-Aib-QGTFTSD-Bip(OMe)-Bip(2Me)] | 60 | 92 | 98 | 99 | 99 | 10 | 8 | 6 | 1 | 4
3 | H[Aib]QGTFTSD[Bip(OMe)][Bip(Pyr)] [Seq. ID. No. 14: H-Aib-QGTFTSD-Bip(OMe)-Bip(Pyr)] | 62 | 94 | 99 | 99 | 99 | 9 | 6 | 5 | 0 | 3
4 | H[Aib]QGTFTSD[Bip(OMe)][Bip(2F)] [Seq. ID. No. 15: H-Aib-QGTFTSD-Bip(OMe)-Bip(2F)] | 66 | 97 | 99 | 99 | 99 | 6 | 5 | 2 | 0 | 0
5 | H[Aib]QGTFTSD[Bip(OMe)][Bip(2CF3)] [Seq. ID. No. 16: H-Aib-QGTFTSD-Bip(OMe)-Bip(2CF3)] | 69 | 98 | 99 | 99 | 99 | 4 | 2 | 0 | 0 | 0
6 | H[Ac3c]QGTFTSD[Bip(OMe)][Bip(2Me)] [Seq. ID. No. 17: H-(ACP)-QGTFTSD-Bip(OMe)-Bip(2Me)] | 78 | 99 | 99 | 99 | 99 | 2 | 0 | 0 | 0 | 0
7 | H[Ac3c]QGTFTSD[Bip(OMe)][Bip(Pyr)] [Seq. ID. No. 18: H-(ACP)-QGTFTSD-Bip(OMe)-Bip(Pyr)] | 86 | 99 | 99 | 99 | 99 | 0 | 0 | 0 | 0 | 0
